From PMC10054699 (Vaccines, 2023) come the findings set out here.

The series concerns the molecule itself. Briefly: SEC; Superdex 200 column; purified F1. For orientation: Size exclusion chromatography separates by hydrodynamic size, large species first.

B1: polymeric F1 protein (F1 capsular antigen of Yersinia pestis) (natural protein)
chain: ADLTASTTATATLVEPARITLTYKEGAPITIMDNGNIDTELLVGTLTLGGYKTGTTSTSVNFTDAAGDPMYLTFTSQDGNNHQFTTKVIGKDSRDFDISPKVNGENLVGDDVVLATGSQDFFVRSIGSKGGKLAAGKYTDAVTVTVSNQ
notes: also called PolyF1; polyF1
For B1, the binding result is “binds”.
